Data on 94 variants can be found in the supplement of paper PMC10567573.

The labels stand for the following.
B1: TRIB1 (parent)
chain: SYVRSRKRLREEEAARLFKQIVSA
B2: TRIM35 (parent)
chain: DKELLCCSCQADPRHQGHRVQPVK
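Further: lentivirally expressed fusions sorted by FACS into six bins by GFP to DsRed ratio, PSI derived from sequencing read proportions per bin multiplied by bin number.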

The first data set covers variants of B1. Briefly: protein stability index of a GFP-peptide fusion (GPS, HEK-293T) (PSI 1-6); higher = more stable. Conditions: c terminus: a fixed tail appended.
With SYVRSRKRLREEEAARLFKQIVSG, the protein stability index was 3.39.
Take SYVRSRKRLREEEAARLFKQIVST: the protein stability index amounted to 2.47.
As for SYVRSRKRLREEEAARLFKQIVSD, the protein stability index turned out to be 2.76.
On the same count and under the same terms, then SYVRSRKRLREEEAARLFKQIVSC, with 2.99.
Same read-out and setting: in the case of SYVRSRKRLREEEAARLFKQIVSS it was 2.08; in that of SYVRSRKRLREEEAARLFKQIVSR, 2.01; in that of SYVRSRKRLREEEAARLFKQIVSW, 2.
Same read-out and setting: in the case of SYVRSRKRLREEEAARLFKQIVSM it was 1.14.
Take SYVRSRKRLREEEAARLFKQIVSV: the protein stability index is 2.61.
Still for that read-out and setting: then SYVRSRKRLREEEAARLFKQIVSL, with 1.65.
The same measure, in the same setting: then SYVRSRKRLREEEAARLFKQIVSQ, with 2.18; and SYVRSRKRLREEEAARLFKQIVSE, with 1.99; and SYVRSRKRLREEEAARLFKQIVSH, with 2.58.
In the case of SYVRSRKRLREEEAARLFKQIVSY, the protein stability index turned out to be 2.32.
Consider SYVRSRKRLREEEAARLFKQIVSK, for which the protein stability index came out at 2.97.
Still for that read-out and setting: in the case of SYVRSRKRLREEEAARLFKQIVSF it was 2.26; in that of SYVRSRKRLREEEAARLFKQIVSN, 3.37; in that of SYVRSRKRLREEEAARLFKQIVSI, 2.88.
On the same count and under the same terms, in the case of SYVRSRKRLREEEAARLFKQIVSP it was 2.63; in that of SYVRSRKRLREEEAARLFKQIISA, 2.94.
Same read-out and setting: then SYVRSRKRLREEEAARLFKQINSA, with 2.86; and SYVRSRKRLREEEAARLFKQIHSA, with 2.23; and SYVRSRKRLREEEAARLFKQIPSA, with 3.72.
Take SYVRSRKRLREEEAARLFKQIWSA: the protein stability index was found to be 3.04.
Still for that read-out and setting: in the case of SYVRSRKRLREEEAARLFKQIQSA it was 3.34; in that of SYVRSRKRLREEEAARLFKQILSA, 2.54.
Still for that read-out and setting: then SYVRSRKRLREEEAARLFKQIMSA, with 2.45; and SYVRSRKRLREEEAARLFKQIRSA, with 3.3.
Same read-out and setting: then SYVRSRKRLREEEAARLFKQIGSA, with 3.11.
Regarding SYVRSRKRLREEEAARLFKQISSA, the protein stability index came out at 2.62.
On the same count and under the same terms, in the case of SYVRSRKRLREEEAARLFKQITSA it was 2.94; in that of SYVRSRKRLREEEAARLFKQIYSA, 1.49.
Take SYVRSRKRLREEEAARLFKQIVTA: the protein stability index was determined as 1.75.
The same measure, in the same setting: then SYVRSRKRLREEEAARLFKQIVFA, with 2.07; and SYVRSRKRLREEEAARLFKQIVRA, with 1.99; and SYVRSRKRLREEEAARLFKQIVPA, with 2.99.
The same measure, in the same setting: then SYVRSRKRLREEEAARLFKQIVKA, with 2.3; and SYVRSRKRLREEEAARLFKQIVMA, with 2.87; and SYVRSRKRLREEEAARLFKQIVNA, with 2.32.
Same read-out and setting: then SYVRSRKRLREEEAARLFKQIVLA, with 2.18; and SYVRSRKRLREEEAARLFKQIVGA, with 1.9.
For SYVRSRKRLREEEAARLFKQIVQA, the protein stability index was 1.94.
Same read-out and setting: then SYVRSRKRLREEEAARLFKQIVAA, with 2.01.
The same measure, in the same setting: then SYVRSRKRLREEEAARLFKQIVDA, with 3.05; and SYVRSRKRLREEEAARLFKQIVIA, with 1.48; and SYVRSRKRLREEEAARLFKQIVHA, with 1.8.
SYVRSRKRLREEEAARLFKQIVEA: the protein stability index was found to be 2.56.
For the variant SYVRSRKRLREEEAARLFKQIVWA, the protein stability index turned out to be 1.07.
On the same count and under the same terms, in the case of SYVRSRKRLREEEAARLFKQIVYA it was 1.73; in that of SYVRSRKRLREEEAARLFKQIVCA, 1.63.

Variants of B2 are the subject of a further data set. Described as above. The settings on record: c terminus: a fixed tail appended.
In the case of DKDLLCCSCQADPRHQGHRVQPVK, the protein stability index came to 3.4.
Still for that read-out and setting: then DKCLLCCSCQADPRHQGHRVQPVK, with 2.26; and DKALLCCSCQADPRHQGHRVQPVK, with 2.92.
Same read-out and setting: then DKKLLCCSCQADPRHQGHRVQPVK, with 3.52; and DKFLLCCSCQADPRHQGHRVQPVK, with 2.34.
Same read-out and setting: in the case of DKILLCCSCQADPRHQGHRVQPVK it was 2.51; in that of DKGLLCCSCQADPRHQGHRVQPVK, 2.43; in that of DKHLLCCSCQADPRHQGHRVQPVK, 2.47.
Regarding HKELLCCSCQADPRHQGHRVQPVK, the protein stability index was determined as 3.02.
On to TKELLCCSCQADPRHQGHRVQPVK, for which the protein stability index turned out to be 3.71.
Still for that read-out and setting: then KKELLCCSCQADPRHQGHRVQPVK, with 3.46; and EKELLCCSCQADPRHQGHRVQPVK, with 4.13.
Same read-out and setting: then WKELLCCSCQADPRHQGHRVQPVK, with 1.87; and VKELLCCSCQADPRHQGHRVQPVK, with 3.06; and MKELLCCSCQADPRHQGHRVQPVK, with 3.67.
On the same count and under the same terms, in the case of SKELLCCSCQADPRHQGHRVQPVK it was 3.31; in that of QKELLCCSCQADPRHQGHRVQPVK, 3.59.
In the case of PKELLCCSCQADPRHQGHRVQPVK, the protein stability index is 3.49.
On the same count and under the same terms, then FKELLCCSCQADPRHQGHRVQPVK, with 2.79.
Still for that read-out and setting: then CKELLCCSCQADPRHQGHRVQPVK, with 3.49.
Take YKELLCCSCQADPRHQGHRVQPVK: the protein stability index was found to be 2.11.
Same read-out and setting: then RKELLCCSCQADPRHQGHRVQPVK, with 2.71.
Same read-out and setting: then IKELLCCSCQADPRHQGHRVQPVK, with 2.38; and NKELLCCSCQADPRHQGHRVQPVK, with 3.77.
On the same count and under the same terms, then AKELLCCSCQADPRHQGHRVQPVK, with 3.15.
For DYELLCCSCQADPRHQGHRVQPVK, the protein stability index was found to be 3.2.
On the same count and under the same terms, in the case of DNELLCCSCQADPRHQGHRVQPVK it was 3.95; in that of DAELLCCSCQADPRHQGHRVQPVK, 3.54.
The same measure, in the same setting: then DPELLCCSCQADPRHQGHRVQPVK, with 3.19; and DWELLCCSCQADPRHQGHRVQPVK, with 4.1; and DQELLCCSCQADPRHQGHRVQPVK, with 3.78.
On to DDELLCCSCQADPRHQGHRVQPVK, for which the protein stability index came out at 3.46.
The same measure, in the same setting: in the case of DVELLCCSCQADPRHQGHRVQPVK it was 3.53; in that of DGELLCCSCQADPRHQGHRVQPVK, 3.05; in that of DCELLCCSCQADPRHQGHRVQPVK, 4.2.
DEELLCCSCQADPRHQGHRVQPVK: the protein stability index is 4.01.
The same measure, in the same setting: in the case of DIELLCCSCQADPRHQGHRVQPVK it was 2.84; in that of DSELLCCSCQADPRHQGHRVQPVK, 3.87.
The same measure, in the same setting: then DTELLCCSCQADPRHQGHRVQPVK, with 3.79.
As to DMELLCCSCQADPRHQGHRVQPVK, the protein stability index was 3.65.
The same measure, in the same setting: in the case of DRELLCCSCQADPRHQGHRVQPVK it was 3.12.
Still for that read-out and setting: then DFELLCCSCQADPRHQGHRVQPVK, with 2.63.
Same read-out and setting: then DLELLCCSCQADPRHQGHRVQPVK, with 3.18; and DHELLCCSCQADPRHQGHRVQPVK, with 3.51.
